Results from PMC8510550.

Molecular target: VirB4-like TraB ATPase of the pKM101-encoded type IV secretion system (plasmid pKM101 (carried in E. coli))
Experiment: cryo-EM structure; in situ cryo-electron tomography with subtomogram averaging of T4SS(pKM101) machines in E. coli UU2834 minicells; 6-fold symmetry seen in class averages and then imposed for the IMC; wild type compared with ΔtraB mutant machines

stoichiometry N: 12
Substance: VirB4-like TraB ATPase of the pKM101-encoded type IV secretion system (enzyme)
